Laboratory results from doi:10.1101/2023.06.05.543797.
Where “and” joins values, the source holds several entries; their conditions need not be identical. Equal values may be shown once.

Experiments:
Conditions in all cases: scale: KASH6 per SUN1
[1] = biological target: SUN domain of human SUN1 (amino-acids 616-812) (human); test: SEC-MALS
[2] = biological target: SUN domain of human SUN1 (amino-acids 616-812) (human); test: SEC-MALS; remark: listed apart in the source
[3] = biological target: SUN domain of human SUN1 (amino-acids 616-812) (human); test: crystal structure
[4] = biological target: SUN domain of human SUN1 (amino-acids 616-812) (human); test: SEC-MALS; remark: listed apart in the source

| Binder | stoichiometry N [1] | stoichiometry N [2] | stoichiometry N [3] | stoichiometry N [4] |
| --- | --- | --- | --- | --- |
| TGQLFQKSVDAAPTQQEDSWTSLEHILWPFTRLRHNGPPPV [KASH domain of human JAW1/LRMP (amino-acids 515-555)] | 1 | 0.67 and 1 | 0.67 | – |
| EDSWTSLEHILWPFTRLRHNGPPPV [KASH6 core (human JAW1/LRMP amino-acids 531-555)] | 1 | – | – | 0.67 |
